# Data: paper PMC5632138 (Journal of molecular biology, 2017)
# T1: Full-length ETV4 Ile372Ala (UniProt P43268 1-484, Ile372Ala)
# T1 sequence (looked up): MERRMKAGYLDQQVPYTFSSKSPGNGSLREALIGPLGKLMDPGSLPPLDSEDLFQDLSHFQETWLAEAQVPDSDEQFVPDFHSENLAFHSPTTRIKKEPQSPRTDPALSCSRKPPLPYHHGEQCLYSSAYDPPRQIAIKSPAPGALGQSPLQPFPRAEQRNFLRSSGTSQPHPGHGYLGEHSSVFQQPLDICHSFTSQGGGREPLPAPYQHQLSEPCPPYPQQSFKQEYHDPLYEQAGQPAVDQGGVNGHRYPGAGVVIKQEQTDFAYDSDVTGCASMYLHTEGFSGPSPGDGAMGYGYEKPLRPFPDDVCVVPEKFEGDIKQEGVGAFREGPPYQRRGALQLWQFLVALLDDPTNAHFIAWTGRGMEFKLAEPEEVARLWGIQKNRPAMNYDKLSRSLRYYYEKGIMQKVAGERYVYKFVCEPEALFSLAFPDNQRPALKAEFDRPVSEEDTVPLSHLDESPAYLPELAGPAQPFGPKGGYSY
# T2: Full-length ETV4 Glu373Ala (UniProt P43268 1-484, Glu373Ala)
# T2 sequence (looked up): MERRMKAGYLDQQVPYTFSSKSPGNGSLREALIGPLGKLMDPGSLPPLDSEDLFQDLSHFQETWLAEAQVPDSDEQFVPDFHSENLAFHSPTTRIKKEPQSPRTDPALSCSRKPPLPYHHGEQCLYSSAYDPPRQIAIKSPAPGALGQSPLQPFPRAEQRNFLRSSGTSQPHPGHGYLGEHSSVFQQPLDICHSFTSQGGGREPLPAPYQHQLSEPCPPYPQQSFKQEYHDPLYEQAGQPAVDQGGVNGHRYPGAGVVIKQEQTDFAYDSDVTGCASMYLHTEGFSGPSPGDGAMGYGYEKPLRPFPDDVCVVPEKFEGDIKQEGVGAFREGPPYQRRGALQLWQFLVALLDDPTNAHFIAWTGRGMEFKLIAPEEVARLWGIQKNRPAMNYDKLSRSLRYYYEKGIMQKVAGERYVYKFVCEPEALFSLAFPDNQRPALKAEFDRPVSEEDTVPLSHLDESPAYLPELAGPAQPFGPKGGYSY
# Columns and labels:
# [1] = target: T1, Full-length ETV4 Ile372Ala; experiment: BLI
# [2] = target: T2, Full-length ETV4 Glu373Ala; experiment: BLI
binder,measurement,setting,value
"MED25 ACID (residues 391–553), biotinylated ligand for biolayer interferometry (domain or fragment, human, UniProt Q71SY5 391-553, looked up, biotin (biotinylated; D-biotin added at the induction point)) GQQSVSNKLLAWSGVLEWQEKPKPASVDANTKLTRSLPCQVYVNHGENLKTEQWPQKLIMQLIPQQLLTTLGPLFRNSRMVQFHFTNKDLESLKGLYRIMGNGFAGCVHFPHTAPCEVRVLMLLYSSKKKIFMGLIPYDQSGFVNGIRQVITNHKQVQQQKLE",binding result,[1],binds
same,binding result,[2],binds
